# B1: HA-catalase (human, HA-HsCatalase) (enzyme)
# chain: MADSRDPASDQMQHWKEQRAAQKADVLTTGAGNPVGDKLNVITVGPRGPLLVQDVVFTDEMAHFDRERIPERVVHAKGAGAFGYFEVTHDITKYSKAKVFEHIGKKTPIAVRFSTVAGESGSADTVRDPRGFAVKFYTEDGNWDLVGNNTPIFFIRDPILFPSFIHSQKRNPQTHLKDPDMVWDFWSLRPESLHQVSFLFSDRGIPDGHRHMNGYGSHTFKLVNANGEAVYCKFHYKTDQGIKNLSVEDAARLSQEDPDYGIRDLFNAIATGKYPSWTFYIQVMTFNQAETFPFNPFDLTKVWPHKDYPLIPVGKLVLNRNPVNYFAEVEQIAFDPSNMPPGIEASPDKMLQGRLFAYPDTHRHRLGPNYLHIPVNCPYRARVANYQRDGPMCMQDNQGGAPNYYPNSFGAPEQQPSALEHSIQYSGEVRRFNTANDDNVTQVRAFYVNVLNEEQRKRLCENIAGHLKDAQIFIQKKAVKNFTEVHPDYGSHIQALLDKYNAEKPKNAIHTFVQSGSHLAAREKANL
# notes: catalase, human (HsCatalase), amplified from pUcD3/HA-HsCatalase (Otera and Fujiki, 2012) and cloned into pGEX6P-1; source: E. coli DH5α, purified as GST fusion with glutathione-Sepharose beads, isolated by cleaving with PreScission protease
# Target: Pex5L, a longer isoform of Pex5 (Chinese hamster, ClPex5L) (Chinese hamster, UniProt Q920N5 1-640)
# Experiment: pull-down; GST-Pex14 variants (2 μg) on glutathione-Sepharose beads incubated with EGFP-PTS1 (4 μg) or HA-catalase (4 μg) in the presence of Pex5L (2 μg) 2 h at 4°C; 50 mM Tris-HCl pH 7.5, 0.15 M NaCl, 1% Triton X-100, 10% glycerol; immunoblot
# Conditions: both partners purified
binder,measurement,value
B1,binding result,binds
